The series deals with the molecule itself. Nature of the series: crystal structure.

B1: MarR family protein Rv2887 (natural protein)
chain: MGLADDAPLGYLLYRVGAVLRPEVSAALSPLGLTLPEFVCLRMLSQSPGLSSAELARHASVTPQAMNTVLRKLEDAGAVARPASVSSGRSLPATLTARGRALAKRAEAVVRAADARVLARLTAPQQREFKRMLEKLGSD
notes: also called MarR-like protein Rv2887; apo-Rv2887
For the protein B1, the binding result is “binds”.

Values taken from article PMC5526998, “Structural analysis of the regulatory mechanism of MarR protein Rv2887 in M. tuberculosis” (Scientific Reports, 2017).
